Data published in article PMC2680606 (Biochemistry, 2009).

Biological target: Myc-UbcM2-His6 (mouse, UniProt P52483 1-207)
Test: pull-down

Sequence of Myc-UbcM2-His6 (P52483 whole entry): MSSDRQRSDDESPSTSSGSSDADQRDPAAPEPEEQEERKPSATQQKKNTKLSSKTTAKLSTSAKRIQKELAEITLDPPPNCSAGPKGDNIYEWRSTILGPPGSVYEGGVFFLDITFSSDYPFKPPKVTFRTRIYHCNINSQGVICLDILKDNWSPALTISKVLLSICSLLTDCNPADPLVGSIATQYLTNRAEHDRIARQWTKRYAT

fold binding against full-length RCBTB1: 2 fold
B1: ^35S-RCBTB1 fragment: BTB domain and C-terminal 87 residues (domain or fragment, human, UniProt Q8NDN9 360-531, looked up)
chain: LKKEFDSPETADLKFRIDGKYIHVHKAVLKIRCEHFRSMFQSYWNEDMKEVIEIDQFSYPVYRAFLQYLYTDTVDLPPEDAIGLLDLATSYCENRLKKLCQHIIKRGITVENAFSLFSAAVRYDAEDLEEFCFKFCINHLTEVTQTAAFWQMDGPLLKEFIAKASKCGAFKN
modifications: 35S-labelled methionine and cysteine
